These results are taken from patent US20240294983A1 (CALIFORNIA INSTITUTE OF TECHNOLOGY, published 2024).

B1: SC35 (protein, human, UniProt Q01130 2-221, looked up)
chain: SYGRPPPDVEGMTSLKVDNLTYRTSPDTLRRVFEKYGRVGDVYIPRDRYTKESRGFAFVRFHDKRDAEDAMDAMDGAVLDGRELRVQMARYGRPPDSHHSRRGPPPRRYGGGGYGRRSRSPRRRRRSRSRSRSRSRSRSRSRYSRSKSRSRTRSRSRSTSKSRSARRSKSKSSSVSRSRSRSRSRSRSRSPPPVSKRESKSRSRSKSPPKSPEEEGAVSS
B2: E-cadherin (receptor, human, UniProt P12830 155-882, looked up)
chain: DWVIPPISCPENEKGPFPKNLVQIKSNKDKEGKVFYSITGQGADTPPVGVFIIERETGWLKVTEPLDRERIATYTLFSHAVSSNGNAVEDPMEILITVTDQNDNKPEFTQEVFKGSVMEGALPGTSVMEVTATDADDDVNTYNAAIAYTILSQDPELPDKNMFTINRNTGVISVVTTGLDRESFPTYTLVVQAADLQGEGLSTTATAVITVTDTNDNPPIFNPTTYKGQVPENEANVVITTLKVTDADAPNTPAWEAVYTILNDDGGQFVVTTNPVNNDGILKTAKGLDFEAKQQYILHVAVTNVVPFEVSLTTSTATVTVDVLDVNEAPIFVPPEKRVEVSEDFGVGQEITSYTAQEPDTFMEQKITYRIWRDTANWLEINPDTGAISTRAELDREDFEHVKNSTYTALIIATDNGSPVATGTGTLLLILSDVNDNAPIPEPRTIFFCERNPKPQVINIIDADLPPNTSPFTAELTHGASANWTIQYNDPTQESIILKPKMALEVGDYKINLKLMDNQNKDQVTTLEVSVCDCEGAAGVCRKAQPVEAGLQIPAILGILGGILALLILILLLLLFLRRRAVVKEPLLPPEDDTRDNVYYYDEEGGGEEDQDFDLSQLHRGLDARPEVTRNDVAPTLMSVPRYLPRPANPDEIGNFIDENLKAADTDPTAPPYDSLLVFDYEGSGSEAASLSSLNSSESDKDQDYDYLNEWGNRFKKLADMYGGGEDD
notes: Endogenous membrane protein in fixed human cells or tissue, detected through an unnamed primary antibody and a fractional-initiator secondary antibody probe
B3: β-catenin (other, human, UniProt P35222 2-781, looked up)
chain: ATQADLMELDMAMEPDRKAAVSHWQQQSYLDSGIHSGATTTAPSLSGKGNPEEEDVDTSQVLYEWEQGFSQSFTQEQVADIDGQYAMTRAQRVRAAMFPETLDEGMQIPSTQFDAAHPTNVQRLAEPSQMLKHAVVNLINYQDDAELATRAIPELTKLLNDEDQVVVNKAAVMVHQLSKKEASRHAIMRSPQMVSAIVRTMQNTNDVETARCTAGTLHNLSHHREGLLAIFKSGGIPALVKMLGSPVDSVLFYAITTLHNLLLHQEGAKMAVRLAGGLQKMVALLNKTNVKFLAITTDCLQILAYGNQESKLIILASGGPQALVNIMRTYTYEKLLWTTSRVLKVLSVCSSNKPAIVEAGGMQALGLHLTDPSQRLVQNCLWTLRNLSDAATKQEGMEGLLGTLVQLLGSDDINVVTCAAGILSNLTCNNYKNKMMVCQVGGIEALVRTVLRAGDREDITEPAICALRHLTSRHQEAEMAQNAVRLHYGLPVVVKLLHPPSHWPLIKATVGLIRNLALCPANHAPLREQGAIPRLVQLLVRAHQDTQRRTSMGGTQQQFVEGVRMEEIVEGCTGALHILARDVHNRIVIRGLNTIPLFVQLLYSPIENIQRVAAGVLCELAQDKEAAEAIEAEGATAPLTELLHSRNEGVATYAAAVLFRMSEDKPQDYKKRLSVELTSSLFRTEPMAWNETADLGLDIGAQGEPLGYRQDDPSYRSFHSGGYGQDALGMDPMMEHEMGGHHPGADYPVDGLPDLGHAQDLMDGLPPGDSNQLAWFDTDL
notes: Endogenous protein in fixed human cells or tissue, detected through an unnamed primary antibody and a fractional-initiator secondary antibody probe

Substrate in assay [1]: SON (human) (UniProt P18583)
Kind of assay: HCR proximity imaging of the endogenous complex in fixed A-431 human cells; background from controls omitting the antibodies to one protein; SEM, N=3 cells.

The assay “β-catenin” concerns the target B3. Kind of assay: HCR proximity imaging; A-431 cells positive sample, HeLa cells negative sample. The protocol:
(§1) For each pair of sample types, signal-to-background was calculated using the positive sample type to estimate signal plus background and the negative sample type to estimate background.
(§2) While A-431 cells formed the β-catenin:E-cadherin complex at the cell membrane of intercellular junctions,⁶³ HeLa cells express N-cadherin rather than E-cadherin^{64,65} and therefore lacked the β-catenin:E-cadherin complex.

For assay [2], the target named is B2. Kind of assay: HCR proximity imaging of the endogenous complex in fixed A-431 human cells; background from controls omitting the antibodies to one protein; SEM, N=3 cells. The protocol:
For each protein:protein complex, background was assessed by technical controls in which the antibodies corresponding to one protein of the complex were omitted, simulating a scenario in which the two proteins are not in a complex with one another. For each of three protein:protein target complexes, a high signal-to-background ratio was obtained: 170±10 (SC35:SON), 50±10 (β-catenin:E-cadherin), and 140±10 (α-tubulin:β-tubulin) (standard error of the mean, representative regions within N=3 cells).

For assay [3], the target named is B2. Kind of assay: HCR proximity imaging; normal against invasive lobular carcinoma FFPE human breast tissue sections; mean±SEM, N=3 sections. As to the method:
as §1
The β-catenin:E-cadherin target complex was detected in highly autofluorescent FFPE human breast tissue sections. The β-catenin:E-cadherin complex is robustly formed in normal breast epithelial cells, but the expression of and interaction between the β-catenin and E-cadherin proteins is interrupted when breast epithelial cells become cancerous in the invasive lobular carcinoma disease process.^{66,67} Paired normal and invasive lobular carcinoma FFPE breast tissue sections from the same patient were evaluated for the β-catenin:E-cadherin target complex, yielding strong HCR signal in normal breast tissue (FIG. 45C; positive sample) and no visible staining in cancerous tissue (FIG. 45D; negative sample), with a signal-to-background ratio of 30±3 between the two tissue types (mean±SEM for representative regions of N=3 replicate sections).

Assay [4] deals with B2. Kind of assay: HCR proximity imaging in FFPE human breast tissue section; background from a region with low/no complex; SEM, N=3 regions. As to the method: FIG. 16 depicts imaging the β-catenin:E-cadherin target complex in a highly autofluorescent FFPE human breast tissue section (5-μm thickness) using a pair of fractional-initiator probes, a proximity probe, and an HCR amplifier. Background was assessed by fluorescence in a region of the sample in which there is low/no abundance of the protein:protein complex. A high signal-to-background ratio was obtained (70±20) (standard error of the mean, N=3 representative regions).

Assay [5] concerns the target B2. Kind of assay: HCR proximity imaging; A-431 cells (positive) against HeLa cells (negative, lacking E-cadherin); mean±SEM, N=3 wells. The protocol: as §1, §2

SON (human), sequence (P18583 2-2426 limits assumed): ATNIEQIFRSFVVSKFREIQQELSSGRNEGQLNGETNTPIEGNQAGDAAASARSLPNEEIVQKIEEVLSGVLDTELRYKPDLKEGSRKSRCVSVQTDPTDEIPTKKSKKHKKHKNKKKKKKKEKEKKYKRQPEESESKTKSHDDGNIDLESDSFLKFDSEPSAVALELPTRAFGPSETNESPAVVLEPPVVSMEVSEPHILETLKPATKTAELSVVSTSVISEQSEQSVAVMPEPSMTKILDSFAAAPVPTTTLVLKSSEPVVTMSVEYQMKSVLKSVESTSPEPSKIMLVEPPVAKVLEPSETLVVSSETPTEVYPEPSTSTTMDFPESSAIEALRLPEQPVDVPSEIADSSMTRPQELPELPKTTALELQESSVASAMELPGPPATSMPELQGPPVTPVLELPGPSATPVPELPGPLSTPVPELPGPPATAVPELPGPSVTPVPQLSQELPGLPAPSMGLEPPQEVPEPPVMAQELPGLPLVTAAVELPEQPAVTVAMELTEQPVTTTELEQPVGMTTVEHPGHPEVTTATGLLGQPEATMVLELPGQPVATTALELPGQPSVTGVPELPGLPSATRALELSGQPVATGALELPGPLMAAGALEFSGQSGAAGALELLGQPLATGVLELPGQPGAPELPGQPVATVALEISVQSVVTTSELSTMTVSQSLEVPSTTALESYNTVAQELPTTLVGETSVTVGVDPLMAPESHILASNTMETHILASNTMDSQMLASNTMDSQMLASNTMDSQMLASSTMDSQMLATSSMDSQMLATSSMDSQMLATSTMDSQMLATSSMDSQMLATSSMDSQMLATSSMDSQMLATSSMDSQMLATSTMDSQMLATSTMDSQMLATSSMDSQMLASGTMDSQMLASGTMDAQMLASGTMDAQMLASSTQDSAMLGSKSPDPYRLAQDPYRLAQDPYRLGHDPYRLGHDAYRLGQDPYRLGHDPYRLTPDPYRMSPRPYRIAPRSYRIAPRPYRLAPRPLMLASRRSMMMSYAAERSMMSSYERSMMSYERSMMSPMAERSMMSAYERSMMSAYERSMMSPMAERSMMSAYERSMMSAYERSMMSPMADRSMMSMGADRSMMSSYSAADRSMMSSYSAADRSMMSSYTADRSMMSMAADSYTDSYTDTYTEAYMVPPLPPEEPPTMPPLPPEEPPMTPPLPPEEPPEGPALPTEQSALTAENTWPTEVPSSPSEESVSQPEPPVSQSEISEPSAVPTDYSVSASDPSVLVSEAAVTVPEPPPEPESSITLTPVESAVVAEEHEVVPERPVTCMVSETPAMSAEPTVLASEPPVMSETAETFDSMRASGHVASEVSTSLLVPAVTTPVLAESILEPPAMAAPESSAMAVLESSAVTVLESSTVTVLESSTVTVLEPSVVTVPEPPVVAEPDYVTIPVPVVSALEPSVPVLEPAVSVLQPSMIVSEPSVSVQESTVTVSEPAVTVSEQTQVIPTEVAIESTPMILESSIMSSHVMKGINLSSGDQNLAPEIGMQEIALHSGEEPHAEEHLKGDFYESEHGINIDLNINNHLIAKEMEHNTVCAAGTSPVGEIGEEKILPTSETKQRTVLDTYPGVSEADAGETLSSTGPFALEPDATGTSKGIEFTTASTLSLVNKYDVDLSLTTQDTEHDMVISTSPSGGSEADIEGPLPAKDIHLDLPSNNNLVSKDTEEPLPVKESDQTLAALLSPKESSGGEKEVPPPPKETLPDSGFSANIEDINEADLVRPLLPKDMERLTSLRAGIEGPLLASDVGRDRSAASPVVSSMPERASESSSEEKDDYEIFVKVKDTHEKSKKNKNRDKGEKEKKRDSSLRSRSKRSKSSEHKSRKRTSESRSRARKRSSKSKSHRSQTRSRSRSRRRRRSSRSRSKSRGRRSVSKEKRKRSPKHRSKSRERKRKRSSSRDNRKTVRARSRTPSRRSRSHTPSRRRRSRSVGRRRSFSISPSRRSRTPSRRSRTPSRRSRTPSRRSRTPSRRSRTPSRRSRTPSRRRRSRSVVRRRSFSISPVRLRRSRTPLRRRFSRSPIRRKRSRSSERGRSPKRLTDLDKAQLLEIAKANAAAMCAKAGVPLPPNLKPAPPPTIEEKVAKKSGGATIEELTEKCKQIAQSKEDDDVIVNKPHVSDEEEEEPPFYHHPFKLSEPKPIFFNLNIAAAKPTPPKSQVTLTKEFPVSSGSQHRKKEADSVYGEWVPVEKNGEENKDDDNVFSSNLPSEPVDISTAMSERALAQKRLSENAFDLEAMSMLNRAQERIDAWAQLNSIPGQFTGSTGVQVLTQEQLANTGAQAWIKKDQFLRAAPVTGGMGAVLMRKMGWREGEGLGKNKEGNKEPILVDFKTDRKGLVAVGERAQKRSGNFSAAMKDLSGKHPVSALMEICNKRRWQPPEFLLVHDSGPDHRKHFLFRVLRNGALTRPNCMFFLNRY

B1: the signal-to-background ratio in assay [1] was 170.

On to B2, for which the binding result with β-catenin is recorded as “binds”.

Take B3: the signal-to-background ratio was determined as 50 in the assay with E-cadherin [2], 30 with E-cadherin [3], 70 with E-cadherin [4] and 26 in the assay with E-cadherin [5].
